Key:
[1] = biological target: T1, PLS2 RD-ABD1 (a.a. 1–385) (human, UniProt P13796 1-385); test: FP; pH 8.0
T1 chain: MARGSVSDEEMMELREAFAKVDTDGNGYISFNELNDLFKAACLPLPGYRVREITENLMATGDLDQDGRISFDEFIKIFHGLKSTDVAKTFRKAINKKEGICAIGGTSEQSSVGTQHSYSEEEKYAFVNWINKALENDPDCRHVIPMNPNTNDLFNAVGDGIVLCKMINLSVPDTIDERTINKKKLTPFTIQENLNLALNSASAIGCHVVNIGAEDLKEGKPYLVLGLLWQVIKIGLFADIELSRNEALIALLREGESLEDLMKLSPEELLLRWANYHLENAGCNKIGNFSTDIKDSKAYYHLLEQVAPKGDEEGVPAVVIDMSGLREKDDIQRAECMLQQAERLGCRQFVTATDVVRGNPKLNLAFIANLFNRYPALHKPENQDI

[2] = biological target: T1, PLS2 RD-ABD1 (a.a. 1–385); test: FP; pH 7.0

Kd [1]: 8.7 nM
Kd [2]: 4.5 nM
B1: fluorescein-maleimide labeled PLS2 ABD2 (FM-ABD2) (domain or fragment)
chain: PENQDIDWGALEGETREERTFRNWMNSLGVNPRVNHLYSDLSDALVIFQLYEKIKVPVDWNRVNKPPYPKLGGNMKKLENCNYAVELGKNQAKFSLVGIGGQDLNEGNRTLTLALIWQLMRRYTLNILEEIGGGQKVNDDIIVNWVNETLREAKKSSSISSFKDPKISTSLPVLDLIDAIQPGSINYDLLKTENLNDDEKLNNAKYAISMARKIGARVYALPEDLVEVNPKMVMTVFACLMGKGM
modifications: fluorescein maleimide (FM) label; labeled residue not stated

— PMC12309418 (2025)
